These results are taken from paper PMC5150216, “Actin activates Pseudomonas aeruginosa ExoY nucleotidyl cyclase toxin and ExoY-like effector domains from MARTX toxins” (Nature Communications, 2016).

Experiment [1] concerns the target T1, α-actin from rabbit skeletal muscle (rabbit, UniProt P68135 1-377). The experiment in a line: co-sedimentation; as a6, F-actin with 6 μM phalloidin. To be noted: both partners purified.
Experiment [2] has as its target T1, α-actin from rabbit skeletal muscle. Nature of the experiment: co-sedimentation. To be noted: both partners purified.

B1: MBP-ExoY^K81M-ST (enzyme)
chain: MRIDGHRQVVSNATAQPGPLLRPADMQARALQDLFDAQGVGVPVEHALRMQAVARQTNTVFGIRPVERIVTTLIEEGFPTMGFSVKGKSSNWGPQAGFICVDQHLSKREDRDTAEIRKLNLAVAKGMDGGAYTQTDLRISRQRLAELVRNFGLVADGVGPVRLLTAQGPSGKRYEFEARQEPDGLYRISRLGRSEAVQVLASPACGLAMTADYDLFLVAPSIEAHGSGGLDARRNTAVRYTPLGAKDPLSEDGFYGREDMARGNITPRTRQLVDALNDCLGRGEHREMFHHSDDAGNPGSHMGDNFPATFYLPRAMEHRVGEESVRFDEVCVVADRKSFSLLVECIKGNGYHFTAHPDWNVPLRPSFQEALDFFQRKV
notes: also called His-MBP-ExoY^K81M-ST; source: expressed from pEA12 (Ptac promoter); purified under non-denaturing conditions (HisTrap, StrepTrap, Superdex 200); not shown: His-tag, N-terminal, kept; MBP, N-terminal, kept; Strep-tagII, C-terminal, kept
On to B1, for which the equilibrium dissociation constant (Kd) in experiment [1] is 1.6 to 1.8 µM. In experiment [2], binding was characterised by a dissociation constant (Kd) of 1.6 ± 0.3 µM and the “stoichiometry N” value stood at 1.
